What was measured:
M1-linked diUb = M1-linked diUb (UniProt P0CG48); assay: ITC
monoUb = monoUb (UniProt P0CG48 1-76); assay: ITC
SEC = target: the molecule itself; assay: SEC
[1] = target: the molecule itself; assay: Western blot of lysate under non-denaturing conditions

Row | binding result (M1-linked diUb) | binding result (monoUb) | Binder | binding result (SEC) | stoichiometry N [1]
1 | binds | binds | ETSELREALLKIFPDSEQKLKIDQILAAHPYMKDLNALSALVLD (domain or fragment) [isolated N4BP1 CUE domain (residues 850-893) used for ITC, NMR and analytical gel filtration] | binds | –
2 | – | – | mouse N4BP1 (613-893) in cell lysate (dimerization test of Fig. 2B) (domain or fragment) ADLKHIVIDGSNVAITHGLKKFFSCRGIAIAVEYFWKLGNRNITVFVPQWRTRRDPNITEQHFLTQLQELGILSLTPARMVFGERIASHDDRFLLHLADKTGGIIVTNDNFREFVTESVSWREIITKRLLQYTFVGDIFMVPDDPLGRNGPRLEEFLRKEAFLRHMQPLLNALPSVGTFDPGFRSPSTQVANNSHQPPPRIQTSSSPWLPQQSHFTALATLPSMQQNPPLPAQRSSAETSELREALLKIFPDSEQKLKIDQILAAHPYMKDLNALSALVLD | – | 2
